Consider 1 molecule from paper PMC3079584, “A Cytoplasmic Complex Mediates Specific mRNA Recognition and Localization in Yeast”.

Residue numbers refer to the chain shown, from its start.

As usually defined, the Kd is the constant that tells how readily two partners part at equilibrium.

Data set [1] concerns the target She2p (ΔC);She3p (Saccharomyces cerevisiae;Saccharomyces …, UniProt P36068;P38272 1-240;1-425, |). The data set is described as follows: EMSA; She3p 25 nM; at least 25 nM She2p(ΔC) required; EMSA: 20 mM HEPES pH 7.8, 200 mM NaCl, 2 mM MgCl2, 2 mM DTT, 4% glycerol, 30 or 100 ug/ml yeast tRNA, 5 nM RNA, 20 C; filter binding: 20 mM HEPES pH 7.4-7.5 (7.9 with She3p), 150 mM NaCl, 2 mM MgCl2, 2 mM DTT, 30 ug/ml yeast tRNA, 0.5 nM RNA; pull-down: HNMD buffer, 4 C. Particulars: protein: recombinant;recombinant; tags: GST tag (PreScission-cleaved);C-terminal His6; label: 32P; stem-loop. A general note: A gel shift assay detects complexes by their altered migration in electrophoresis.

The target of data set [2] is She2p;She3p (Saccharomyces cerevisiae;Saccharomyces …, UniProt P36068;P38272 1-246;1-425, |). The data set is described as follows: EMSA; She3p constant 25 nM, She2p varied; EMSA: 20 mM HEPES pH 7.8, 200 mM NaCl, 2 mM MgCl2, 2 mM DTT, 4% glycerol, 30 or 100 ug/ml yeast tRNA, 5 nM RNA, 20 C; filter binding: 20 mM HEPES pH 7.4-7.5 (7.9 with She3p), 150 mM NaCl, 2 mM MgCl2, 2 mM DTT, 30 ug/ml yeast tRNA, 0.5 nM RNA; pull-down: HNMD buffer, 4 C. The following applies: protein: recombinant;recombinant; tags: GST tag (PreScission-cleaved);C-terminal His6; chain copies: 4;2; label: 32P; stem-loop.
She2p;She3p, sequence (P36068 whole entry, one chain of several): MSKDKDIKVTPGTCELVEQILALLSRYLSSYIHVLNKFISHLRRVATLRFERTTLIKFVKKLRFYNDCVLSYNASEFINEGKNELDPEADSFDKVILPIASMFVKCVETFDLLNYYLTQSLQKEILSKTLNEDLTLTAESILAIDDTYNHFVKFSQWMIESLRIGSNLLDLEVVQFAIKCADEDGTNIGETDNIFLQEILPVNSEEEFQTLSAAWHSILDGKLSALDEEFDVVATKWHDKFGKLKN

Data set [3] has as its target T1, She3p (334-425) (Saccharomyces cerevisiae, UniProt P38272 334-425).
T1 sequence: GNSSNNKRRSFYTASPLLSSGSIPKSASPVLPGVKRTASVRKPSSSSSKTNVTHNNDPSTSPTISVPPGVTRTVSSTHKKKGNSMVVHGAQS
The data set is described as follows: EMSA; +++; EMSA: 20 mM HEPES pH 7.8, 200 mM NaCl, 2 mM MgCl2, 2 mM DTT, 4% glycerol, 30 or 100 ug/ml yeast tRNA, 5 nM RNA, 20 C; filter binding: 20 mM HEPES pH 7.4-7.5 (7.9 with She3p), 150 mM NaCl, 2 mM MgCl2, 2 mM DTT, 30 ug/ml yeast tRNA, 0.5 nM RNA; pull-down: HNMD buffer, 4 C. The following applies: protein: recombinant; tags: MBP and His6 (EMSA); His6 (SEC, cross-linking); label: 32P; stem-loop.

For data set [4], the target named is T2, She3p (S348E) (Saccharomyces cerevisiae, UniProt P38272 1-425, S348E).
T2 sequence: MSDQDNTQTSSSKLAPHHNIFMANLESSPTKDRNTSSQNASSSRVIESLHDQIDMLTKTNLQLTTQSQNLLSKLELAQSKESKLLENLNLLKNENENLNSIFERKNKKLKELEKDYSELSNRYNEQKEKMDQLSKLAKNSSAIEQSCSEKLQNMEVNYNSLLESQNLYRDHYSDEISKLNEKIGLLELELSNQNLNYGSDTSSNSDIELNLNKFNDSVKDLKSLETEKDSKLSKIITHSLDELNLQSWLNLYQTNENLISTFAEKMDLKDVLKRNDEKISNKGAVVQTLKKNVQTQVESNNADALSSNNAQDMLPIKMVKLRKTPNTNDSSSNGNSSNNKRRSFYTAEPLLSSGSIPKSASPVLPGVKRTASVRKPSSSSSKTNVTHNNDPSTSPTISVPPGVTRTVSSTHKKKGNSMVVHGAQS
The description is as above. The following applies: protein: recombinant; tags: C-terminal His6; label: 32P; stem-loop.

Data set [5] has as its target T3, She3p (S343E S361E) (Saccharomyces cerevisiae, UniProt P38272 1-425, S343E;S361E).
T3 sequence: T2 sequence with S343E, E348S, S361E
The data set is described as above. The following applies: protein: recombinant; tags: C-terminal His6; label: 32P; stem-loop.

She2p (ΔC);She3p, sequence (P36068 1-240, stated change not applied, one chain of several): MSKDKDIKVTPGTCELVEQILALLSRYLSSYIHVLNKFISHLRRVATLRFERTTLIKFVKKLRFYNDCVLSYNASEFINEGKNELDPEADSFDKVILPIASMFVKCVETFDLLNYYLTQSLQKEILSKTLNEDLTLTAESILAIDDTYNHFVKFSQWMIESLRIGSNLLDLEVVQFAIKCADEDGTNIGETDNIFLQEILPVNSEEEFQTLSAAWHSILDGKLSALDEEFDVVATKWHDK

B1: ASH1 E3-118 (structured_RNA)
RNA: GAGACAGUAGAGAAUUGAUACAUGGAUAACUGAAUCUCUUUCAACUAAUAAGAGACAUUAUCACGAAACAAUUGUACAUUUCUCUCCUUGUCUGUGCUAAAUAAACUACAAAUAAAAA
Consider B1, for which the binding signal in data set [1] is around 5 fold reduced. The equilibrium dissociation constant (Kd) in data set [2] is around 25 nM. Besides, the binding result in data set [3], in data set [4] and in data set [5] was “binds” in each case.
